{
  "source": "paper PMC6353875",
  "about": "“The EZH2 SANT1 domain is a histone reader providing sensitivity to the modification state of the H4 tail” (Scientific Reports, 2019)",
  "target": "EZH2 SRM-SANT1 (residues 141–251) (human) (UniProt Q15910)",
  "sequence (Q15910 141-251)": "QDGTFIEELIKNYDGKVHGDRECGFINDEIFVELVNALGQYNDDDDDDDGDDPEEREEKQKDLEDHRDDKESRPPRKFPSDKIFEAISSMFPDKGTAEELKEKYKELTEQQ",
  "test": "NMR titration; 15N-HSQC spectra of 0.05–0.10 mM 15N-EZH2 SRM-SANT1 with increasing concentrations of histone peptide; 25 °C; Kd from normalized CSPs, one-site model accounting for ligand depletion, averaged over significantly perturbed residues",
  "data": [
    {"substance": "unmodified histone H4 peptide (residues 1–21) (from UniProt P62805 2-22)", "values": [
      {"measurement": "Kd", "value": 300, "unit": "µM"}
    ]}
  ]
}
